Assay results from US20230257476A1 (ELANCO US, published 2023).

Target: T1, canine CD20 (canine, UniProt Q3C2E2 1-297)
T1 construct: whole, on cells; Endogenous antigen in acetone-fixed tissue cryosections (IHC); also called CD20 protein in dogs
T1 sequence (looked up): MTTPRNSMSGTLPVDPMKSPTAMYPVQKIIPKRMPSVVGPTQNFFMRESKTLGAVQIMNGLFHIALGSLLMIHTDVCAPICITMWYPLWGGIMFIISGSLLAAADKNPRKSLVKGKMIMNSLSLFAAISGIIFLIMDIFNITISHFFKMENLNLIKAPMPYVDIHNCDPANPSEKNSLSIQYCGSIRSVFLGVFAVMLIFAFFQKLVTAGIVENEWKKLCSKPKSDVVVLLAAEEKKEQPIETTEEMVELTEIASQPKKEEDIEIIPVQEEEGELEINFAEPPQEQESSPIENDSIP
Experiment: IHC, precomplexed with biotinylated rabbit anti-dog IgG, cryosections of canine spleen, 10 ug/mL
Method: The detection reagent or negative control antibody (at a concentration of 10 […]) was mixed with biotinylated rabbit anti-dog IgG, Fc fragment-specific antibody (RbaDglgG) at a concentration of 15 ug/mL to achieve a primary : secondary antibody ratio of 1:1.5 on the day prior to staining.
Precomplexed antibodies were incubated overnight on a rocker mechanism in a refrigerator set to maintain 4° C., Prior to use of the antibody on the subsequent day, dog gamma globulins were added to each vial to achieve a final concentration of 3 mg/mL, and then incubated for at least 2 hours on the rocker mechanism in a refrigerator set to maintain 4° C. Slides were fixed in acetone for 10 minutes at room temperature at the time of sectioning. On the day of staining, the slides were rinsed twice with Tris-buffered saline, 0.15M NaCl, pH 7.6 TBS. Endogenous peroxidase was then quenched by incubation of the slides with an appropriate reagent such as Biocare PeroxAbolish reagent for 5 minutes at room temperature. Next, the slides were rinsed twice with TBS, incubated with the avidin solution for 15 minutes, rinsed once with TBS, incubated with the biotin solution for 15 minutes, and rinsed once with TBS, The slides were then treated with a protein block designed to reduce nonspecific binding for 20 minutes.

B1: K9LO-133 (antibody, V domains shown)
VH: EVQLVQSGAEVKKPGESLKISCKGSGRTFTSYNMHWVRQMPGKGLEWMGAIYPLTGDTSYNQKSKLQVTISADKSISTAYLQWSSLKASDTAMYYCARSTYVGGDWQFDVWGKGTTVTVSS
VL: EIVLTQSPGTLSLSPGERATLSCRASRSVPYIHWYQQKPGQAPRLLIYATSALASGIPDRFSGSGSGTDFTLTISRLEPEDFAVYYCQQWLSNPPTFGQGTKLEIKR
notes: In the IHC it was precomplexed with biotinylated rabbit anti-dog IgG Fc antibody; also called chimeric canine isotype C monoclonal antibody directed against canine CD20
B1: binds.
